Results as given in patent US20120264921A1.

Target: hepatitis B virus surface antigen (HBsAg) (Hepatitis B virus)
Test: competitive ELISA: plate-coated HBsAg, soluble HBsAg as competitor, purified IgG

Row | Binder | fold lower affinity than HB48-35
1 | human antibody HB48-59 (antibody, V domains shown) VH: QVQLVQSGGEVKKPGALMKVSCKASGYIFTSYGISWVRQAPGQGLEWIGWINTYSGHTNYARKFRGRVTMTWDTSTSTAYMELSSLRSDDTAVYYCARVPTWGIDYWGQGTLVTVSS VL: DIVMTQTPLSLPVTPGEPASISCRSSQSLLHSNGYNYLDWYLQKPGQSPQLLIYLGSKRASGVPDRFSGSGSGTDFTLQISRVEAEDVGVYYCMQSTQFPPYTFGQGTKLEIKR | 1.3 fold
2 | human antibody HB48-33 (antibody, V domains shown) VH: QVQLVQSGGEVKKPGALMKVSCKASGYIFTSYGISWVRQAPGQGLEWIGWINTYSGHTNYARKFRGRVTMTWDTSTSTAYMELSSLRSDDTAVYYCARVPTWGIDYWGQGTLVTVSS VL: QAGLTQPPSVSVAPGKTARITCGGDNIGRKSVHWYQQKTGQAPVLVVYEDNKRPSGIPERFSGSNSGNTATLTISGTQAMDEADYYCQAWDSSTVVFGGGTKLTVLG | 4 fold
